Measured values: patent publication US20200255499A1 (COUNCIL OF THE QUEENSLAND INSTITUTE OF MEDICAL RESEARCH, published 2020)
Residue numbers refer to the chain shown, from its start.

Experiments:
[1] = biological target: T1, Epstein Barr Virus (EBV) glycoprotein gp350 (Epstein-Barr virus, UniProt P03200 1-860); assay: SPR (Biacore T100), single cycle kinetics, gp350 immobilised on CM5 sensor chip, antibody as analyte
T1 construct: Viral antigen: immunogen, coated in the ELISAs, immobilised on the CM5 chip in SPR; also called EBV gp350; gp350 antigen
T1 sequence: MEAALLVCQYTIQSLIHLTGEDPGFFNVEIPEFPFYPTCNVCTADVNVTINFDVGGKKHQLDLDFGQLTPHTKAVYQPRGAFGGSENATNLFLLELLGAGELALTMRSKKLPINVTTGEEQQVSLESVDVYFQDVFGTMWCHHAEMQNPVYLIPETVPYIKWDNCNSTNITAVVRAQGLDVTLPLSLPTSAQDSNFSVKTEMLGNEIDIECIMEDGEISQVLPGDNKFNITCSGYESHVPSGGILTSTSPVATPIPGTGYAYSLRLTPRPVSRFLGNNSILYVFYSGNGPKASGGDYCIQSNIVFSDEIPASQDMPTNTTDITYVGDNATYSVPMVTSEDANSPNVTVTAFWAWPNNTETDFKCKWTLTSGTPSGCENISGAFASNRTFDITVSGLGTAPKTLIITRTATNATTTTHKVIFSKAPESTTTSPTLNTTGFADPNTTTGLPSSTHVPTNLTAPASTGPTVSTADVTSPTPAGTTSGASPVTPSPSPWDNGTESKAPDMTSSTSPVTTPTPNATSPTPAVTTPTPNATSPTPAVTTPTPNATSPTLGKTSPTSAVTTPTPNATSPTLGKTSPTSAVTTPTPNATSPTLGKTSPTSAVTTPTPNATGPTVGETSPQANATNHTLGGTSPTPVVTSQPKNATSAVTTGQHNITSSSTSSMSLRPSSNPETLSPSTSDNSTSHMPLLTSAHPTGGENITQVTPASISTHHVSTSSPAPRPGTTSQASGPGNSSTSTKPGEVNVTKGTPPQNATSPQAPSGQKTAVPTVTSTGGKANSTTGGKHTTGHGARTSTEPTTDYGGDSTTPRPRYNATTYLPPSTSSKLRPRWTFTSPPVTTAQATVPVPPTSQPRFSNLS

[2] = biological target: T1, Epstein Barr Virus (EBV) glycoprotein …; assay: SPR (Biacore T100), steady-state affinity plot, 1:1 Langmuir fit, gp350 immobilised on CM5 sensor chip, antibody as analyte
[3] = biological target: T1, Epstein Barr Virus (EBV) glycoprotein …; assay: monoclonal phage ELISA on gp350
[4] = biological target: T1, Epstein Barr Virus (EBV) glycoprotein …; assay: SPR (Biacore T100), gp350 immobilised on CM5 chip, antibody as analyte, single cycle kinetics; single cycle kinetics (FIG. 10), 'KD value' in nM
[5] = biological target: T1, Epstein Barr Virus (EBV) glycoprotein …; assay: SPR steady-state affinity plot, 1:1 Langmuir fit (FIG. 11), gp350 immobilised; given as 'affinity constant'; 'affinity constant' in M (FIG. 11)
[6] = biological target: T1, Epstein Barr Virus (EBV) glycoprotein …; assay: SPR steady-state affinity plot, 1:1 Langmuir fit (FIG. 11), gp350 immobilised; printed as 'affinity value'; 'affinity value' in M (FIG. 11)
[7] = biological target: T1, Epstein Barr Virus (EBV) glycoprotein …; assay: SPR (Biacore T100), gp350 immobilised on CM5 chip, antibody as analyte, single cycle kinetics; single cycle kinetics (FIG. 10), 'dissociation value' in nM
[8] = biological target: T1, Epstein Barr Virus (EBV) glycoprotein …; assay: SPR (Biacore T100), gp350 immobilised on CM5 chip, antibody as analyte, single cycle kinetics; single cycle kinetics (FIG. 10), dissociation constant in nM
[9] = biological target: T1, Epstein Barr Virus (EBV) glycoprotein …; assay: SPR (Biacore T100), gp350 immobilised on CM5 chip, antibody as analyte, single cycle kinetics
[10] = biological target: T1, Epstein Barr Virus (EBV) glycoprotein …; assay: SPR steady-state affinity plot, 1:1 Langmuir fit (FIG. 11), gp350 immobilised; given as 'affinity constant'

B1: C10 (antibody, V domains shown)
VH: EVQLVQSGAEVKKPGASVKVSCKASGYTFNAYYIHWVRQAPGQGLDWMGWINPNSGGTNYAQNFKGRVTMTRDTSISTAYLELRSLTSDDTAVYFCATERGYTSSFRRDAFDKWGQGTMLTVSS
VL: EAVVTQPPSASGTPGQGVTISCSGSSSNIGSNFVYWYQQLPGTAPKLLIYRNNQRPSGVPDRFSGSKSATSASLAISGLRSEDEADYYCATWDDSLSGYVFGTGTKLTVLG
notes: Full IgG1 form of phage clone C10, expressed in Expi293F cells; It is not in the list MOLECULES; also called Clone C10 recombinant human IgG1 monoclonal antibody; CloneC10
For B1, the Kd [1] was 11.4 nM and the Kd [2] was 663 nM.

B2: Clone D7, original phage-displayed antibody fragment (other)
VH: B1 VH with K19E
VL: ESVLTQPPSVSAAPGQKVTMSCSGSTSNIGSNSVSWYQHLPGTAPKLLLFDNAKRPSGIPDRFSGSKSGTSATLGITGLQTGDEADYYCGTWDSGLSVMVFGGGTKLTVLG
notes: also called CloneD7 (phage clone)
Binder B2 has an absorbance [3] greater than 1 absorbance.

B3: Clone C10, original phage-displayed antibody fragment (other)
VH: B1 VH
VL: B1 VL
notes: also called CloneC10 (phage clone)
B3 gave an absorbance [3] greater than 1 absorbance.

B4: Clone A11 recombinant human IgG1 monoclonal antibody (antibody, V domains shown)
VH: EMQLVQSGAEVKKPGASVKVSCKTSGYNFNHQGISWLRQAPGQGLEWMGWISGFNGKTNYAQKFQGRVTMTADRSTTTAYMELRSLRSDDTAVYYCASGGEQWLVQNFVHWGQGTLLTVSS
VL: ETVLTQEPSLTVSPGGTVTLTCASSTGAVTSGYYPNWFQQKPGQAPRALIYSTSNKHSWTPARFSGSLLGGKAALTLSGVQPEDEAEYYCLLYYGGAWVFGGGTKLTVLG
notes: also called Antibody A11
Binder B4 has a Kd [4] of 0.723 nM and a Kd [5] of 309 nM.

B5: Clone B7 recombinant human IgG1 monoclonal antibody (antibody, V domains shown)
VH: B1 VH with K19E
VL: ESVLTQPPSVSAAPGQKVTISCSGSSSNIGNNYVSWYQQLPGTAPKLLIYENNKRPSGIPDRFSGSKSGTSATLGITGLQTGDEAGYYCGTWDSSLSAVVFGGGTKLTVLG
notes: also called Antibody B7
B5 showed a Kd [6] of 768 nM and a Kd [7] of 4.07 nM.

B6: Clone D7 recombinant human IgG1 monoclonal antibody (antibody, V domains shown)
VH: B1 VH with K19E
VL: B2 VL
Binder B6 has a Kd [5] of 465 nM and a Kd [8] of 3.86 nM.

B7: Clone E10 recombinant human IgG1 monoclonal antibody (antibody, V domains shown)
VH: B1 VH with K19E, M119L
VL: ESVLTQPPSISAAPGQRVTIPCSGSSSDIGNHYVSWYQQLPGAAPKLLIYEDNKRPSGIPDRFSGSKSGTSASLGITGLQTGDEADYYCGTWDNSLRSGFFGGGTKVTVLG
With B7 the Kd [5] was 664 nM and the Kd [8] was 2.23 nM.

B8: Clone B8 recombinant human IgG1 monoclonal antibody (antibody, V domains shown)
VH: EVQLVESAGEVQKPGESLRISCKASGYTFSHYWIGWVRQLPGKGLEWMGIIYPDDSDSRYSPSFQGQVTMSVDKSINTAYLQWNSLKVSDTATYYCVRHWLKRGSNFGFGFDPWGQGTTLTVSS
VL: ESALTQPASVSGSPGQSITISCTGTSSDVGGYNYVSWYQQHPGKAPKLMIYDVSNRPSGVSNRFSGSKSGNTASLTISGLQAEDEADYYCSSYTSSSTLVFGGGTKLTVLG
notes: also called antibody B8
For B8, the Kd [9] was 33.3 nM and the Kd [10] was 829 nM.

B9: Clone B8, original phage-displayed antibody fragment (other)
VH: B8 VH
VL: B8 VL
notes: VH and VL are as translated from the PCR products of the original phage clone; also called CloneB8 (phage clone)
In the case of B9, the absorbance [3] is reported as greater than 1 absorbance.

B10: Clone A11, original phage-displayed antibody fragment (other)
VH: MQLVQSGAEVKKPGASVKVSCKTSGYNFNHQGISWLRQAPGQGLEWMGWISGFNGKTNYAQKFQGRVTMTADRSTTTAYMELRSLRSDDTAVYYCASGGEQWLVQNFVHWGQGTLLTVSS
VL: VLTQEPSLTVSPGGTVTLTCASSTGAVTSGYYPNWFQQKPGQAPRALIYSTSNKHSWTPARFSGSLLGGKAALTLSGVQPEDEAEYYCLLYYGGAWVFGGGTKLTVL
notes: The printed VH and VL begin one or two residues later than those of the other clones, so they may be cut short at the N-terminus; also called CloneA11 (phage clone)
With B10 the absorbance [3] was greater than 1 absorbance.

B11: Clone E10, original phage-displayed antibody fragment (other)
VH: B1 VH with K19E, M119L
VL: B7 VL
notes: also called CloneE10 (phage clone)
For B11, the absorbance [3] was greater than 1 absorbance.

B12: Clone B7, original phage-displayed antibody fragment (other)
VH: B1 VH with K19E
VL: B5 VL
notes: also called CloneB7 (phage clone)
Binder B12 has an absorbance [3] greater than 1 absorbance.
